Laboratory results from PMC6305201.

Legend:
[1] = target: glycophorin A on red blood cells (human (endogenous in red blood cells)) (UniProt P02724)
[2] = target: glycophorin A on red blood cells (human (endogenous in red blood cells)) (UniProt P02724); remark: listed apart in the source

Substance: recombinant soluble region II (RII) of EBA-175 (domain or fragment)
- lowest concentration of RII at which RBC clustering was seen (confocal live imaging, picomolar and low nanomolar RII) [1]: 0.3 nM
- mean cluster area of RBCs under flow (1 dyn/cm^2), RII 1, 10 and 100 nM [2]: 1140 µm^2
